Experimental data published in the RNAGym collection of RNA variant scans (doi:10.1073/pnas.2313332121).

B1: TPR t1 (parent)
chain: GACCAAUCUGCCCUCAGAGCUCGAGAACAUCUUCGGAUGCAGAGGAGGCAGGCUUCGGUGGCGCGAUAGCGCCAACGUCCUCAACCUCCAAUGCAUCCCACCACAUGAUGAUGCCUGAAGAGCCUUGGUUUUUUG

Variants of: B1
Experiment: polymerase ribozyme fitness, log enrichment relative to wild type (log ratio); higher = more active; in vitro selection for triplet polymerase activity
In short: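 The heterodimeric triplet polymerase ribozyme's subunits were each mutagenized into PCR-built libraries and transcribed. Every library was selected once, in triplicate, by annealing with a biotinylated primer, the partner subunit and triplets, incubating frozen at −7 °C, gel-excising extended constructs, capturing on streptavidin beads and running RT-PCR. Input and output libraries were Illumina-sequenced, with genotypes kept only at ≥10 input reads and ≥1 read per output. Fitness, from inverse-variance-weighted replicate averages, is the base-2 logarithm of genotype enrichment over wild-type enrichment.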

Variant | polymerase ribozyme fitness (log ratio)
C15U A100C | -2.86
C15G A74U C88A C101U | -4.74
A16C U33C C62G U81A A108G G120A C123G | -6.36
A16C G61C C88U | -4.85
C15G C22U | -5.53
C15U G39U G42A A84U | -4.16
C15U U21C G110A U130G | -4.32
C15U C40U C114A | -4.3
A16C C62U A83C C88G | -2.71
C15A C98U G117A | -4.11
C15G U32C G36C C49G U59C G120C | -4.02
A16C G77U A119G | 0.8
C15G C104U U132A | -1.67
C15G C62U A90G U126A | -3.64
C15G A29C G71C C86U G113U G120U U129A | -6.08
C15U A41U G69C C82A U112A C124A | -3.69
C15A G39C A41U C101U | -3.77
C15A G52C G63U G93U C97U | -5.64
C15U A74C A75G C115A | -3.69
C15U A43U C72G C88U A91C G120C | -1.58
C15U C20G G51A C98G U109A | -2.04
C15A C123A | -1.02
C15A C123U | -1.1
C15G G61A | -1.86

Variant | polymerase ribozyme fitness (log ratio)
C15U C64U G117U G120A | -1.73
C15A G52A G60A U112C U116C | -3.35
A16C C73G U116C G135U | -3.68
C15U C73A U78A C86G | -2.43
C15G U96C G117C U130G | 0.208
C15A G63A G127C | -4.4
C15A G39C C114G | -4.44
C15G G63U U96A C99U G117U | -5.62
C15U G58A G61U | -1.4
C15U U54A U59A C80A C82G C123U | -3.3
C15G C53G C56G G61A | -3.41
C15A G45U G61U A84U C123U | -2.78
C15G G69U C102A | -1.71
C15U U59G C70U C104A | -4.32
C15U C20A G42A C124A U130C | -2.95
C15U C94A | -2.56
C15U G57U C72U C82A A111C A118G | -1.91
C15U C85A C124U G128C U133G | -4.88
C15G C70G U132C | -6.73
C15A U96A | -2.85
C15A G42U C79U C115G C123A | -5.36
C15G U78G | -2.92
C15U G117C | -2.96
C15U G117U | -3.29

Variant | polymerase ribozyme fitness (log ratio)
A16C G45C G63A A100C U112C U129G | -2.73
C15U U54A A105U U112C | -2.79
C15U C76A U87A C101G | -4
C15G G39U C72A | -3.5
C15G G61U U78C C101A | -3.49
C15G A118U C123U | -0.83
C15U C72G A100U U130A | -2.29
C15U U30G C53G G71C U78G U106A | -4.3
C15U U96C U129A | -2.88
C15U G57A G58A U109G G113A | -7.08
C15U C64U | -1.59
C15U A41G G52U C62U A119U | -2.59
C15G U112G G122A | -1.95
C15G U132A | -2.31
C15U G93U | -2.38
C15G G36A | -4.46
C15A G117A U129C | -2.87
A16C A27G G61A U112C | -1.49
C15U C97G A121C | -4.09
C15G U32C G36C C49G G120C | -3.15
C15U U21A G63U | -2.12
C15U C114U | -2.91
C15G G52A | -2.6
C15U A43U A84C | -2.66

Variant | polymerase ribozyme fitness (log ratio)
A16C C79G | -4.14
C15U G17U A91G C98U A111C | -6.3
C15U C20A C72U C86U | -3.76
C15U C70U U81A G113A G117A | -4.22
C15U G45C G117A | -1.11
C15A G69C C94U U126A | -5.2
C15U A50U G71A C89U | -5.22
C15U C99U | -3.99
C15G C70A | -5.24
C15U A16C G93C C123U U126C | -2.73
C15G C49G G71U A74U U106C C124U | -5.29
C15G A26C U54G G71U C114U | -5.95
C15U A111U A118C | -5.19
C15G C20U C62A G117U | -3.55
C15U C28U C72G U96C | -3.94
C15A U106G | -3.3
C15A G42U C85U G120C | -1.73
C15A U59A C101A | -3.37
C15U C64G A90C C114U G128A | -6.98
C15U G60C G117A | 0.583
A16C C101A G120A | -3.59
C15A G47C U133C | -3.12
C15U G44C A50C G61U U96C C104U | -2.29
C15U G39C G69U C94U C115U C123A G135U | -1.89

Variant | polymerase ribozyme fitness (log ratio)
C15U A111C U130A | -1.29
C15G A83G G120C | -2.3
C15U C53U C97U | -1.96
C15U | -1.37
C15G | -2.16
C15U G44A C56A C62A G71C U131A | -3.4
C15G U109A G120U C123A | -6.64
C15U G58A C79U | -2.08
C15G C76G C101A | -3.53
C15U C72U U78A C85G C98A C104G C123U G128C | -6.7
C15G G17A | -3.99
C15A C97A G120A U130A | -4.97
C15U C34A G60C C76U C82G A105G G113U | -6.4
C15U G39C C94U C115U C123A G135U | -5.48
C15G A119G | 0.41
C15U U133A | -1.79
C15U U133G | -2.11
C15U C56A | -1.78
C15U C56G | -2.76
C15A G36U A121G | 0.928
A16C G77C G120U C123U | -2.57
C15U C123G | 0.228
C15G G45C C102A G113U G122A | -5.64
C15A C114A | -4.98

Variant | polymerase ribozyme fitness (log ratio)
C15U G60A A91C | -2.6
C15G A16U G61U G122U C123U | -2.55
C15U C49A U92C U106A | -3.27
C15G C53U C85G | -4.35
C15U C53U G69U | -0.102
C15G G71A A90G | -3.09
C15A C101U U112A | -1.08
A16C A90C | -4.52
C15U G127U | -2.39
C15U G39A C98U | -3.87
C15G G36A A100C C124G | -3.29
C15G U78G C115U U126A | -2.34
C15A U129A | -3.18
C15G A37U G48U G77U G122A | -4.17
C15G G17U C86A | -5.4
C15G A95C A119U | -3.82
C15U C49U U55G C73U | -1.56
C15G G48C C85U G122A | -3.3
C15U C64A C79A C98A G117U | -6.93
C15G A27C A41G C114U U116C | -7.35
C15A G57U | -2.02
C15A G57C | -1.91
C15A G47U C73A C115A A121C U133C | -5.41
C15U U32C | -1.42

Variant | polymerase ribozyme fitness (log ratio)
C15A U59A | -2.31
C15G C53G G60A | -3.25
C15A G57U G61A U112C G113A U132C | -6.11
C15U A84C | -1.68
C15G G47A C70G G117C | -3.82
C15U A43U G48A A100C A111G | -5.15
C15U G42C A74U | -3.74
C15G C82G G117U U130C | -0.86
C15U G60U C123U | -0.514
A16C A50U U54A C86G | -5.88
C15U U38A G60U A83G | -2.98
C15U A29U | -3.13
C15G C70U A84G | -5.53
C15U G77A U87G U125A | -2.39
C15U U78A C86G | -3.29
C15A U133G | -3.68
C15G C73A C82G G117U U130C | -0.6
A16C C124G | 1
C15U G47C G48U C62G A100U C124U | -5.24
C15A G47U C80U C86A | -3.28
C15A G63U | -3.03
C15A U87G A91C U112C G128C G135U | -5.85
C15U G61U A91G A121C U126A | -4.05
